Publication PMC9482650, “Quantitative fragmentomics allow affinity mapping of interactomes” (Nature Communications, 2022)

T1: PDZD7_3, Q9H5P4
T1 sequence (Q9H5P4 857-944, limits assumed, looked up): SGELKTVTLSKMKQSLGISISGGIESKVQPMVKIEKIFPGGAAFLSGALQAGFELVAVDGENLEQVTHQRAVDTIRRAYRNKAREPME

T2: CARD11, Q9BXL7
T2 sequence (Q9BXL7 662-765, limits assumed, looked up): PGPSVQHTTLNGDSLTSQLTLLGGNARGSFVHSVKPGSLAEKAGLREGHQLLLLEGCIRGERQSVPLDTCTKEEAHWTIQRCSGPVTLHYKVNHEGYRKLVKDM

T3: APBA2_2, Q99767
T3 sequence (Q99767 654-744, limits assumed, looked up): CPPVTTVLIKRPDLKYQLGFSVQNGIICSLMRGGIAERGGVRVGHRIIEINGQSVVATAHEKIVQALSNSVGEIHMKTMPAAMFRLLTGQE

T4: DLG3_2, Q92796
T4 sequence (Q92796 221-321, limits assumed, looked up): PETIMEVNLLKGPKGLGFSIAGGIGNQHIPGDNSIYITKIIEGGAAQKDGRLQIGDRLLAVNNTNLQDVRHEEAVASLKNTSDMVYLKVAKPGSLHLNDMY

T5: LNX2_2, Q8N448
T5 sequence (Q8N448 334-432, limits assumed, looked up): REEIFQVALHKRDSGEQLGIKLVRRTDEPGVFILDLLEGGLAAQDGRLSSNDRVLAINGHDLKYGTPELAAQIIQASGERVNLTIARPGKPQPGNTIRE

T6: DLG3_3, Q92796
T6 sequence (Q92796 374-475, limits assumed, looked up): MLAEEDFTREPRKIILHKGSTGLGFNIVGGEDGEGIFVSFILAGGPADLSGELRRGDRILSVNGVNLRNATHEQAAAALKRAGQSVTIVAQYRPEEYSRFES

T7: MPP2, Q14168
T7 sequence (Q14168 180-250, limits assumed, looked up): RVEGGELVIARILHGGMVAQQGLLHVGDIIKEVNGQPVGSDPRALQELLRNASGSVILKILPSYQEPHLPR

T8: SHANK1, Q9Y566
T8 sequence (Q9Y566 658-767, limits assumed, looked up): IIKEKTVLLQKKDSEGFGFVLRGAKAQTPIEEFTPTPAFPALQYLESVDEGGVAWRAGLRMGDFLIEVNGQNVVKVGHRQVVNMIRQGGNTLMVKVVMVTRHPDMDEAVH

T9: DFNB31_2, Q9P202
T9 sequence (Q9P202 274-371, limits assumed, looked up): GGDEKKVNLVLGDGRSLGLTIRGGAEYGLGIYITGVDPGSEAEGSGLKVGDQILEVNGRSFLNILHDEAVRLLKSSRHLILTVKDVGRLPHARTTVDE

T10: TJP3_3, O95049
T10 sequence (O95049 375-456, limits assumed, looked up): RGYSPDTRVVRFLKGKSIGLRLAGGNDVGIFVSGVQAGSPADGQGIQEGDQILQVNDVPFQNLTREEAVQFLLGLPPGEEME

T11: MPDZ_12, O75970
T11 sequence (O75970 1857-1958, limits assumed, looked up): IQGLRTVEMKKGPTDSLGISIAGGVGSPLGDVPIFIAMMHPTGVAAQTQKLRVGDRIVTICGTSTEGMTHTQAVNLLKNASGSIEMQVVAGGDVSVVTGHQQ

B1: CRB2, Q5IJ48 (peptide)
chain: LKVPPEERLI
B2: DACT1, Q9NYF0 (peptide)
chain: SGSLKLMTTV
B3: TMEM225B, P0DP42 (peptide)
chain: ETQVTAETVI

Key:
Experiment in all cases: holdup assay
Set-up in all cases: key: below the threshold = too weak to quantify, mostly under pKd 3.1 to 4
Details in all cases: plain residues with an end cap or a label only (N-terminal biotin on a linker: ado-ado)
LIMK2, P53671 = biological target: LIMK2, P53671
Sequence of LIMK2, P53671 (P53671 143-248): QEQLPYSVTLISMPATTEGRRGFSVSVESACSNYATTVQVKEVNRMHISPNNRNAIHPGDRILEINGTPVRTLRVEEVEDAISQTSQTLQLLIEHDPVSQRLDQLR

DLG4_1, P78352 = biological target: DLG4_1, P78352
Sequence of DLG4_1, P78352 (P78352 62-152): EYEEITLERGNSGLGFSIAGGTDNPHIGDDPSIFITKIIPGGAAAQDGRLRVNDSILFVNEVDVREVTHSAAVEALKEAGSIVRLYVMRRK

IL16_3, Q14005 = biological target: IL16_3, Q14005
Sequence of IL16_3, Q14005 (Q14005 1107-1207): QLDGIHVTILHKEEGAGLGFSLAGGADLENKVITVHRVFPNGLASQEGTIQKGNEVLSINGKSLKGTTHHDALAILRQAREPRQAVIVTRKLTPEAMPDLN

GRIP2_3, Q9C0E4 = biological target: GRIP2_3, Q9C0E4
Sequence of GRIP2_3, Q9C0E4 (Q9C0E4 238-339): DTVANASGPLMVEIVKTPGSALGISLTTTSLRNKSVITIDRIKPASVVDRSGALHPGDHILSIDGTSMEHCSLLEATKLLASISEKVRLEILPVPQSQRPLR

TJP1_3, Q07157 = biological target: TJP1_3, Q07157
Sequence of TJP1_3, Q07157 (Q07157 416-512): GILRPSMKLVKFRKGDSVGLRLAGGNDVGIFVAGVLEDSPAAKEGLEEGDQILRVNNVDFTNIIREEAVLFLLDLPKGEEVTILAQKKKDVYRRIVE

Inadl_8, Q8NI35 = biological target: Inadl_8, Q8NI35
Sequence of Inadl_8, Q8NI35 (Q8NI35 1425-1530): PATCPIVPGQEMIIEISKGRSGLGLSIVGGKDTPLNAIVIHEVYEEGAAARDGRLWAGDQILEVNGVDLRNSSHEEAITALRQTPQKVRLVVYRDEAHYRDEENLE

GRIP2_6, Q9C0E4 = biological target: GRIP2_6, Q9C0E4
Sequence of GRIP2_6, Q9C0E4 (Q9C0E4 648-740): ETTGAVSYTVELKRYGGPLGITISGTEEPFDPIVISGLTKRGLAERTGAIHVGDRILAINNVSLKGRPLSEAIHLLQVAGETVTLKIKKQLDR

FRMPD2_3, Q68DX3 = biological target: FRMPD2_3, Q68DX3
Sequence of FRMPD2_3, Q68DX3 (Q68DX3 1073-1166): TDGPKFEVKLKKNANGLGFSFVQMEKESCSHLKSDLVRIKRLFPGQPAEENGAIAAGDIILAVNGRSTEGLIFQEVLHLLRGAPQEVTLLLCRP

PDZD7_3, Q9H5P4 = biological target: T1, PDZD7_3, Q9H5P4
CARD11, Q9BXL7 = biological target: T2, CARD11, Q9BXL7
APBA2_2, Q99767 = biological target: T3, APBA2_2, Q99767
GRIP2_4, Q9C0E4 = biological target: GRIP2_4, Q9C0E4
Sequence of GRIP2_4, Q9C0E4 (Q9C0E4 446-548): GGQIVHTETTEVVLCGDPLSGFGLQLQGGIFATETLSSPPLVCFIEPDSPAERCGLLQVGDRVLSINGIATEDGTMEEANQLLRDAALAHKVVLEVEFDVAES

GRIP2_5, Q9C0E4 = biological target: GRIP2_5, Q9C0E4
Sequence of GRIP2_5, Q9C0E4 (Q9C0E4 544-642): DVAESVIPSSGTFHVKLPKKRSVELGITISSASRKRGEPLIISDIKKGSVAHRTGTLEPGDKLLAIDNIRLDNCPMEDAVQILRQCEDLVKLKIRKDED

DLG3_2, Q92796 = biological target: T4, DLG3_2, Q92796
LNX2_2, Q8N448 = biological target: T5, LNX2_2, Q8N448
DLG3_3, Q92796 = biological target: T6, DLG3_3, Q92796
MAGI3_2, Q5TCQ9 = biological target: MAGI3_2, Q5TCQ9
Sequence of MAGI3_2, Q5TCQ9 (Q5TCQ9 398-503): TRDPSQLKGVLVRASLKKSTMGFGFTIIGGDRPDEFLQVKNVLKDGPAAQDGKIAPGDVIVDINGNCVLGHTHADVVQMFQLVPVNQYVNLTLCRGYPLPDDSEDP

PTPN3, P26045 = biological target: PTPN3, P26045
Sequence of PTPN3, P26045 (P26045 505-587): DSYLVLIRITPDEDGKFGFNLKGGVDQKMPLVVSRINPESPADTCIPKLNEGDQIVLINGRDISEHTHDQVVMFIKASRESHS

MAGI2_4, Q86UL8 = biological target: MAGI2_4, Q86UL8
Sequence of MAGI2_4, Q86UL8 (Q86UL8 772-865): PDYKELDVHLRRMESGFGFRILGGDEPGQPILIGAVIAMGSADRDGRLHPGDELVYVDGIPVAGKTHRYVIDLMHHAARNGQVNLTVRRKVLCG

MAGI2_6, Q86UL8 = biological target: MAGI2_6, Q86UL8
Sequence of MAGI2_6, Q86UL8 (Q86UL8 1141-1229): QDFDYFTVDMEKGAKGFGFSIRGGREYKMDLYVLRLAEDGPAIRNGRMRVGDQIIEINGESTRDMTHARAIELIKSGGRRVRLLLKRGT

MPP2, Q14168 = biological target: T7, MPP2, Q14168
SHANK1, Q9Y566 = biological target: T8, SHANK1, Q9Y566
DFNB31_2, Q9P202 = biological target: T9, DFNB31_2, Q9P202
Inadl_1, Q8NI35 = biological target: Inadl_1, Q8NI35
Sequence of Inadl_1, Q8NI35 (Q8NI35 113-229): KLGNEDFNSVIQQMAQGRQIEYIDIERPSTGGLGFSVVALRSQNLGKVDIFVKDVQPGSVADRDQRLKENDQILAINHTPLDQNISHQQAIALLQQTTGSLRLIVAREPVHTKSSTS

LDB3, O75112 = biological target: LDB3, O75112
Sequence of LDB3, O75112 (O75112 1-94): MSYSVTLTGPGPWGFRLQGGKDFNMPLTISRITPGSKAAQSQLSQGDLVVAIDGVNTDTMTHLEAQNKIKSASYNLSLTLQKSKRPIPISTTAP

TJP3_3, O95049 = biological target: T10, TJP3_3, O95049
MPDZ_12, O75970 = biological target: T11, MPDZ_12, O75970
CASK, O14936 = biological target: CASK, O14936
Sequence of CASK, O14936 (O14936 487-570): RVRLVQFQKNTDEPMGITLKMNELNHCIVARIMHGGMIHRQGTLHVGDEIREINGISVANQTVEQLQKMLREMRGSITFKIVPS

Binder	pKd (LIMK2, P53671)	pKd (DLG4_1, P78352)	pKd (IL16_3, Q14005)	pKd (GRIP2_3, Q9C0E4)	pKd (TJP1_3, Q07157)	pKd (Inadl_8, Q8NI35)	pKd (GRIP2_6, Q9C0E4)	pKd (FRMPD2_3, Q68DX3)	pKd (PDZD7_3, Q9H5P4)	pKd (CARD11, Q9BXL7)	pKd (APBA2_2, Q99767)	pKd (GRIP2_4, Q9C0E4)	pKd (GRIP2_5, Q9C0E4)	pKd (DLG3_2, Q92796)	pKd (LNX2_2, Q8N448)	pKd (DLG3_3, Q92796)	pKd (MAGI3_2, Q5TCQ9)	pKd (PTPN3, P26045)	pKd (MAGI2_4, Q86UL8)	pKd (MAGI2_6, Q86UL8)	other results
B1	below the threshold	below the threshold	below the threshold	below the threshold	below the threshold	below the threshold	below the threshold	below the threshold	below the threshold	below the threshold	below the threshold	below the threshold	below the threshold	below the threshold	3.72	below the threshold	below the threshold	below the threshold	below the threshold	below the threshold	pKd (MPP2, Q14168): below the threshold; pKd (SHANK1, Q9Y566): below the threshold; pKd (DFNB31_2, Q9P202): below the threshold; pKd (Inadl_1, Q8NI35): below the threshold; pKd (LDB3, O75112): below the threshold; pKd (TJP3_3, O95049): below the threshold; pKd (MPDZ_12, O75970): below the threshold; pKd (CASK, O14936): below the threshold
B2	below the threshold	5.02	below the threshold	below the threshold	below the threshold	4.09	below the threshold	below the threshold	5.22	below the threshold	below the threshold	below the threshold	below the threshold	5.12	4.63	4.2	5.21	3.8	4.92	below the threshold	pKd (MPP2, Q14168): below the threshold; pKd (SHANK1, Q9Y566): below the threshold; pKd (DFNB31_2, Q9P202): below the threshold; pKd (Inadl_1, Q8NI35): below the threshold; pKd (LDB3, O75112): below the threshold; pKd (TJP3_3, O95049): below the threshold; pKd (MPDZ_12, O75970): 3.77; pKd (CASK, O14936): below the threshold
B3	below the threshold	3.6	below the threshold	below the threshold	below the threshold	below the threshold	below the threshold	below the threshold	5.23	below the threshold	below the threshold	below the threshold	below the threshold	4.43	4.46	below the threshold	3.79	4.59	below the threshold	below the threshold	pKd (MPP2, Q14168): below the threshold; pKd (SHANK1, Q9Y566): below the threshold; pKd (DFNB31_2, Q9P202): below the threshold; pKd (Inadl_1, Q8NI35): below the threshold; pKd (LDB3, O75112): below the threshold; pKd (TJP3_3, O95049): below the threshold; pKd (MPDZ_12, O75970): below the threshold; pKd (CASK, O14936): below the threshold
